# B1: TPR t1 (parent)
# chain: GACCAAUCUGCCCUCAGAGCUCGAGAACAUCUUCGGAUGCAGAGGAGGCAGGCUUCGGUGGCGCGAUAGCGCCAACGUCCUCAACCUCCAAUGCAUCCCACCACAUGAUGAUGCCUGAAGAGCCUUGGUUUUUUG
# Variants of: B1
# Assay: polymerase ribozyme fitness, log enrichment relative to wild type (log ratio); higher = more active; in vitro selection for triplet polymerase activity
# Method in brief: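 Fitness measures genotype enrichment against wild-type enrichment on a logarithmic scale, with inverse-variance-weighted averaging of replicates. The logarithm is base 2, and genotypes were kept only with ≥10 input reads and ≥1 read per output in Illumina sequencing. The sequenced libraries came from one triplicate in vitro selection round, including frozen incubation at −7 °C, of PCR-built, transcribed mutant libraries of each subunit of a heterodimeric triplet polymerase ribozyme.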
row,Variant,polymerase ribozyme fitness (log ratio)
1,C20G G42A G45A U54G C79U C123U,-6.38
2,C20A C73U C97U A121C,-1.59
3,G19C C72U A91U G113A,-0.96
4,C20G G25C,-6.42
5,C20A A50U,-4.4
6,C20G G47C,-5.65
7,C20A A41U G71A,-4.76
8,C20G C73A C115G,-5.35
9,C20G U112A,-2.38
10,C20G G120C,-2.75
11,C20A G122A C123G,-0.681
12,G19U C76U,-4.25
13,G19U G63A G77U U109A C114U G117C,-6.78
14,C20A A46U C72U U129A,-6.73
15,G19U U59G U106G U112A,-2.43
16,G19U G39C C53U G71U U81A G93U C114A,-4.82
17,C20U A46U C89U,-3.4
18,G19U A43G G47U C76G G113A A119C U131A,-4.34
19,C20U A43U C53G,-2.28
20,C20A C115G,-4.5
21,C20A G61C U133G,-4.9

row,Variant,polymerase ribozyme fitness (log ratio)
1,C20A A50U G120A,-3.84
2,G19C C62G C115U,-4.26
3,G19U C89U C115A,-6.23
4,G19U A37C,-3.64
5,G19C U81C C124G,-0.981
6,C20G C49G,-5.11
7,C20G A27G G120A,-5.6
8,G19C G63U C80A G110C,-6.93
9,C20G U55G C72U A119G,-2.6
10,C20A C86A U112A U125G U126G,-1.97
11,G19U U129G,-4.04
12,C20A G36A,-4.23
13,C20U C49G G52C C72A G93U G117U A119G G128U,-4.52
14,C20A G61C A121G G128U,-5.15
15,C20G G52U,-5.6
16,C20G C56G A95C G117U C124A,-3.93
17,C20A A37U G61A A121C G122A,-1.31
18,C20A A27C,-4.9
19,C20A G47A,-3.54
20,C20G C88U C114G U130C U132A,-5.66
21,C20U A27U C64U G113A,-3.6

row,Variant,polymerase ribozyme fitness (log ratio)
1,G19C C28U C34A C53G C64A C114U U126C,-6.21
2,C20A A43U G113C,-5.17
3,C20A A68G U78C C123U,-4.98
4,C20U A37U C56U,-1.39
5,G19U C40U G47U G61A U106A C123U,-6.98
6,G19U C20U,-2.46
7,C20A G77A G135U,-3.74
8,C20U A24U G60C G63C G69A U81G C98G U109G,-6.52
9,C20G G110C G120C,-6.34
10,C20U A75G,-0.924
11,C20G A118G,-5.96
12,C20G C62A C98A G110C C114A,-8.01
13,C20U A43G G69C C88U U130A,-5.74
14,C20U C62G C101U G110C,-6.8
15,G19C G61A G113U U129A,-4.11
16,G19C G42A G120U,-2.23
17,C20A C97A,-5.7
18,C20A U32A G35C G71U C115A,-5.14
19,G19U C34A G69C C114U,-6.59
20,C20A U106C,-2.55
21,C20A A26G U33A,-5.24

row,Variant,polymerase ribozyme fitness (log ratio)
1,C20G G39C A90U C94U G113U C115U U116G,-1.36
2,C20A G48U U55C,-3.81
3,C20U A29C G120A,-3.64
4,C20A G45U A100U,-5.17
5,C20A C49A G63A U81A C104U G120C U133A G135U,-4.91
6,C20U C72A A83G G113U,-2.08
7,C20A C53A U78G C82G U112A,-0.686
8,C20A G110U,-3.99
9,C20A A90U,-3.71
10,G19C G44A G61A U125G,-2.72
11,C20A C62G C115U G122U,-6.79
12,C20A A121U,-0.837
13,C20A C72G A75U C85A G110U,-5.51
14,G19C G42C G110U G113A,-5.33
15,G19U G71U A84U,-4.08
16,C20A G48U A50U G120U U132C,-4.56
17,G19C C20U C64U,-1.8
18,G19U G110U,-5.11
19,C20G A29G C88U U106A,-5.14
20,C20G C124G,-3.06
21,C20G A41U C73G U87C U92A C123G,-4.71

# Reference: the RNAGym collection of RNA variant scans (doi:10.1073/pnas.2313332121)
